Assay results published in article PMC4671672.

How the values were obtained:
[1] = target: FLAG-NKX2-5 (mouse NKX2-5, pEF-FLAG-NKX2-5) (mouse) (UniProt P42582); assay: co-IP; protein extracts of COS-1 cells expressing FLAG-NKX2-5 (50 ug) and of COS-1 cells expressing GATA4 (30-84 ug) mixed; agarose bound anti-FLAG M2 antibody, overnight at +4°C in lysis buffer (20 mM Tris pH 7.5, 150 mM NaCl, 1 mM EDTA, 1 mM EGTA, 1% Triton X-100, 2.5 mM sodium pyrophosphate); immunoblot with anti-GATA4 and anti-NKX2-5; bands quantified, unspecific binding subtracted, normalized to input and to …
UniProt P42582, sequence (P42582 whole entry): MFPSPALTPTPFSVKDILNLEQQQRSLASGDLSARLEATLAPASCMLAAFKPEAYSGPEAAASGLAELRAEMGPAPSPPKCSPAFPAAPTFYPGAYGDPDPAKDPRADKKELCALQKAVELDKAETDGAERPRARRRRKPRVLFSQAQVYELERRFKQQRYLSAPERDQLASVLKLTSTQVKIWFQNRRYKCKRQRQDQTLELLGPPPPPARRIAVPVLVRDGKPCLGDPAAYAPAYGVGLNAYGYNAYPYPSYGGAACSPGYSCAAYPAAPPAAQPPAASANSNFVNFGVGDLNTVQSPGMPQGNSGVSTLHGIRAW

[2] = target: FLAG-NKX2-5 (mouse NKX2-5, pEF-FLAG-NKX2-5) (mouse) (UniProt P42582)

Substance	percent decrease of binding vs wtGATA4 [1] [%]	also measured
mouse GATA4 K299A (natural protein)	61	
mouse GATA4 M298Y (natural protein)	62	
mouse GATA4 N272D (natural protein)		GATA4-NKX2-5 transcriptional synergy, 3xNKE luciferase reporter, COS-1 cells; reduction vs wtGATA4 [2]: 79%
mouse GATA4 N272S (natural protein)		GATA4-NKX2-5 transcriptional synergy, 3xNKE luciferase reporter, COS-1 cells; reduction vs wtGATA4 [2]: 65%
mouse GATA4 Q274H (natural protein)	47	
mouse GATA4 R264A (natural protein)	36	
mouse GATA4 R283A (natural protein)	84	
mouse GATA4 R283Q (natural protein)	91	
mouse GATA4 R319C (natural protein)	89	
mouse GATA4 V217Y (natural protein)		GATA4-NKX2-5 transcriptional synergy, 3xNKE luciferase reporter, COS-1 cells; vs wtGATA4-NKX2-5 [2]: 146%; percent increase of binding vs wtGATA4 [1]: 235%
